Test results reported in article PMC6499816, “Molecular determinants regulating selective binding of autophagy adapters and receptors to ATG8 proteins” (Nature Communications, 2019).

Biological target: -L1 (recombinant, BLI) (human), Q9H0R8
Assay: BLI
Conditions: modification not given

Chain of -L1 (recombinant, BLI) (human), Q9H0R8 (Q9H0R8 whole entry): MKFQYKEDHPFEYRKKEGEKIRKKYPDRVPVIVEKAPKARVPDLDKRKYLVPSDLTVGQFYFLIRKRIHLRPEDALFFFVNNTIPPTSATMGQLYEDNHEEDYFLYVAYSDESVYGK

| Kd | Binder |
| --- | --- |
| 1.1 µM | NISQKSDEEDFVKIEDLPLKLTIY [PCM1 V1958I LIR peptide] |
| 5.2 µM | NISQKSDEEDFDKVEDLPLKLTIY [PCM1 V1956D LIR peptide] |
